# Measured values reported in article PMC7616481, “The functional evolution of collembolan Ubx on the regulation of abdominal appendage formation”.
# What was measured:
# [1] = biological target: FcUbx isoform 2 (FcU2, FcUbx2), N-terminally truncated (Folsomia candida, UniProt A0AA96CC73 39-288); test: EMSA; 0.4-3 pmol FcU2; 20 ul with EMSA buffer (5x: 0.1 M Tris, 25% glycerol, 0.2 mg/ml BSA), MgCl2 (2.5 M stock), DTT (1 M stock), poly(dI-dC), 20 ng Cy5 probe; 25 min at 25 C; 12% native PAGE on ice; pH not stated; conditions: protein: recombinant; tags: GST; label: 5'-Cy5 (both strands)
# [2] = biological target: FcUbx isoform 1 (FcU1, FcUbx1), N-terminally truncated (Folsomia candida, UniProt A0AA95ZMF5 39-293); test: EMSA; 0.2-1.5 pmol FcU1; 20 ul with EMSA buffer (5x: 0.1 M Tris, 25% glycerol, 0.2 mg/ml BSA), MgCl2 (2.5 M stock), DTT (1 M stock), poly(dI-dC), 20 ng Cy5 probe; 25 min at 25 C; 12% native PAGE on ice; pH not stated; conditions: protein: recombinant; tags: GST; label: 5'-Cy5 (both strands)
binder,measurement,setting,value
DMXR (dsDNA) DNA 1: GACAATATTTGGGAAATTAAATCATTCCCGCGGACAGTTTTATAGTGC DNA 2: GCACTATAAAACTGTCCGCGGGAATGATTTAATTTCCCAAATATTGTC,binding result,[1],binds
same,binding result,[2],binds
